Measured values reported in the supplement of paper PMC7125110.
± gives the standard error. Fewer inactive variants are shown than the library holds.

B1: glmS ribozyme (parent)
chain: AUAAAAGCGCCAGAACUACAGAAAUGUAGUUGACGAGGAGGAGGUUUAUCGAAUUUUCGGCGGAUGCCUCCAAA

Variants of: B1
Test: self-cleavage kobs at 2500 uM GlcN6P; higher = faster cleavage; RNA array
Settings: with glucosamine-6-phosphate
In short: (§1)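 Tiles of sequenced MiSeq chips were imaged over ~14 h at 37 °C. On them, barcoded ribozyme variants had been transcribed in situ by E. coli RNA polymerase and were tracked via a hybridised Cy3 probe while glucosamine-6-phosphate (40 μM to 10 mM) in HEPES/KCl/Mg(OAc)2 buffer flowed in. Per-tile medians, normalised to baseline and to non-cleaving reference variants, were fit to one- or two-exponential decays for kobs, and weighted Michaelis–Menten fits gave kcat and KM.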

Row | Variant | self-cleavage kobs at 2500 uM GlcN6P [s⁻¹]
1 | C8A A14G C68U C70G | < 1e-05
2 | C10G A15G C34A G37A | < 1e-05
3 | C11A G38C G40U G59A | < 1e-05
4 | G7U C8U G32U C50U | < 1e-05
5 | G7C C11A C16U | < 1e-05
6 | G7A C10G G37U | < 1e-05
7 | G7A G51U U54G | < 1e-05
8 | G7U G32U U54C C68G | < 1e-05
9 | G7A A12G A15U G44U U45A A53C | < 1e-05
10 | C8G A33C C34U U46G U65C | < 1e-05
11 | C10U A33U G40C C50U | < 1e-05
12 | C10A U45G U54G | < 1e-05
13 | C10U G26A | 7.4e-05 ± 2.8e-05
14 | A6U A14C G35A | < 1e-05
15 | C10A C16U A48U | < 1e-05
16 | A6G U55A C61G | < 1e-05
17 | G9A G37A G38U | < 1e-05
18 | G9U A39G G44C C67G | < 1e-05
19 | C11G A33U U46G G51C U54A | < 1e-05
20 | C8U U55G C61U C68A | < 1e-05
21 | C10U G51C G59U C67U | < 1e-05
22 | G7U G13A G38U A52C A53C | < 1e-05
23 | G7U U55C C71A | < 1e-05
24 | C10A G59C G66A C67A | < 1e-05
25 | C8A C10U A39G U57C | < 1e-05
26 | C11G G41U A48C C70G | < 1e-05
27 | G9U G41A C67U | < 1e-05

Row | Variant | self-cleavage kobs at 2500 uM GlcN6P [s⁻¹]
28 | C8U G32C C70U | < 1e-05
29 | G7C G51U A53U G60U | < 1e-05
30 | G9C C16G A39G | < 1e-05
31 | C8G G37C G43A G59A | < 1e-05
32 | G9A A15U A48G C70G C71U | < 1e-05
33 | G9A C10U U30A G44A | < 1e-05
34 | C8U G35A G63U | < 1e-05
35 | C10U A33C A36U U54A | < 1e-05
36 | G9U A14G U45A C67A | < 1e-05
37 | G7U G13U A42U G44C | < 1e-05
38 | C10A C34G C68G | < 1e-05
39 | C10A A15C A42C | < 1e-05
40 | C8U G37U U54G | < 1e-05
41 | C11G G35A G40A | < 1e-05
42 | A6U A12C G51A | < 1e-05
43 | C8G C16G U56A | < 1e-05
44 | G9A A33G G43C | < 1e-05
45 | C8U A33G A64U | < 1e-05
46 | G7U C16U A36G G37U G41U C61A | < 1e-05
47 | G7U A12G U69A | < 1e-05
48 | C8U C11U A12U A36C A39G | < 1e-05
49 | G7A G32U G60U | < 1e-05
50 | A6U C8A U56A | < 1e-05
51 | C8A G13U A53G U65G | < 1e-05
52 | C10G U56C | < 1e-05
53 | G9A A36U A53G | < 1e-05
54 | G7U A52U U55C | < 1e-05

Row | Variant | self-cleavage kobs at 2500 uM GlcN6P [s⁻¹]
55 | C10A U30C U55C | < 1e-05
56 | C8U C16U G37C A39G U54C | < 1e-05
57 | C11G U56G G59U | 4.72e-05 ± 2e-05
58 | C10G C34A G37A G60U | < 1e-05
59 | G9U U54C G63C | < 1e-05
60 | C11G G51C A64C | < 1e-05
61 | C11A A15U G44C | < 1e-05
62 | G7A G9C A36C | < 1e-05
63 | C8G C10U C11U G13A C34G | < 1e-05
64 | A6U A39G C70U | 8.18e-05 ± 3.2e-05
65 | C8A G13C U65C | < 1e-05
66 | G7C A33C A36C G66U | < 1e-05
67 | G9C A15U G66C C70G | < 1e-05
68 | C10U A36G G41U G59U C68A | < 1e-05
69 | C8G C10G C70G | < 1e-05
70 | C10U G32U U69A | 4.03e-05 ± 1.7e-05
71 | C8G G29C G38C U57C | < 1e-05
72 | G9A A14C G43U U46A | < 1e-05
73 | G7U C68A | < 1e-05
74 | C8G A42U U49C A52G | < 1e-05
75 | C11U A48C G62U | < 1e-05
76 | G7A G41C U45C U47C | < 1e-05
77 | C8G G38A A48G U57G | < 1e-05
78 | G9U C11U G29U A52U | < 1e-05
79 | C8G A33G A42G U55G | < 1e-05
80 | C10A A15U A42C G44C U56A C67G C70G | < 1e-05

Variants of: B1
Test: self-cleavage kobs at 10000 uM GlcN6P; higher = faster cleavage; RNA array
Settings: with glucosamine-6-phosphate
In short: as §1

Row | Variant | self-cleavage kobs at 10000 uM GlcN6P [s⁻¹]
81 | G7U G32U U54C C68G | < 1e-05
82 | G7U G13A G38U A52C A53C | < 1e-05
83 | C8U C11U A12U A36C A39G | < 1e-05
84 | C10G U56C | < 1e-05
85 | G7U A52U U55C | < 1e-05
86 | C8G C10U C11U G13A C34G | < 1e-05
87 | C8G C10G C70G | < 1e-05
